Laboratory results reported in US20260098088A1 (DISC MEDICINE, published 2026).

T1: membrane-bound human RGMc (human, UniProt Q6ZVN8 36-400)
T1 sequence: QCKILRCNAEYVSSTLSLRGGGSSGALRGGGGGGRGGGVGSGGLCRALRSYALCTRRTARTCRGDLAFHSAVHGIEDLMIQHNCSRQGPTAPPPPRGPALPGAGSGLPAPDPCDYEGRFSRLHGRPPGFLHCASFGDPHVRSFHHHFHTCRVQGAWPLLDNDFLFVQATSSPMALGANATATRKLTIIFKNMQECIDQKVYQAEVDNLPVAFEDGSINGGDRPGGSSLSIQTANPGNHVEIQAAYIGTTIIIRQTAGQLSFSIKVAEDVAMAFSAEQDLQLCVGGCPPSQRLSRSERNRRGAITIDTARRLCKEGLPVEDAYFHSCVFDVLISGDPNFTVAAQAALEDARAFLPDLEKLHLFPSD

T2: membrane-bound human RGMa (human, UniProt Q96B86 169-424)
T2 sequence (looked up): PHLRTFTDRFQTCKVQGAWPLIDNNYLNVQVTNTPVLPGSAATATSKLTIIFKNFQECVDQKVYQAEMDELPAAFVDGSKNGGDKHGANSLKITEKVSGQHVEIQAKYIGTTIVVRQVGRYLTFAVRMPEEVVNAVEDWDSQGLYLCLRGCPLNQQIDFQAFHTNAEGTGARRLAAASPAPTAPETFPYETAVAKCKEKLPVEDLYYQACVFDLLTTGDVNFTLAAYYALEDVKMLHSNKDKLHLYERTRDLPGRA


Experiments:
Experiment in all cases: cell-based or functional assay
[1] = target: T1, membrane-bound human RGMc
[2] = target: T1, membrane-bound human RGMc; remark: listed apart in the source
[3] = target: T2, membrane-bound human RGMa

IC50 (nM), BMP reporter assay for RGMc [1] [nM] | Potency on membrane hRGMc (RGMc/BMP reporter assay) IC50 [2] [nM] | Potency on membrane hRGMa (RGMa/BMP reporter assay) IC50 [3] [nM] | Binder
0.312 | 0.31 | 2 | hHA-004 (antibody, human IgG1, kappa, L234A L235A, V domains shown) VH: EVQLVESGGGLVQPGGSLRLSCAASGFTFSNYGMNWIRQAPGKGLEWIGMIYYDSSEKHYADSVKGRFTISRDNSKNTLYLQMNSLRAEDTAVYYCAKGTTPDYWGQGTMVTVSS VL: DVVLTQSPLSLPVTLGQPASISCRSSQSLESSDGDTFLEWFQQRPGQSPRLLIYDVSTRFSGVPDRFSGSGSGTDFTLKISRVEAEDVGVYYCFQVTHDPVTFGQGTKLEIKR
0.0554 | 0.52 | 1.7 | hHA-011 (antibody, human IgG1, kappa, L234A L235A, V domains shown) VH: EVQLVESGGGLVQPGGSLRLSCAASGFTFSNYGMNWVRQAPGKGLEWIGMIYYDSSEKHYADSVKGRFTISRDNSKNTLYLQMNSLRAEDTAVYYCAKGSTPDYWGQGTMVTVSS VL: DVVLTQSPLSLPVTLGQPASISCRSSQSLEDSDGGTFLEWFQQRPGQSPRLLIYDVSSRFSGVPDRFSGSGSGTDFTLKISRVEAEDVGVYYCFQATHDPLSFGQGTKLEIKR

Continued, binder first:

Binder | IC50 (nM), BMP reporter assay for RGMc [1] [nM] | Potency on membrane hRGMc (RGMc/BMP reporter assay) IC50 [2] [nM] | Potency on membrane hRGMa (RGMa/BMP reporter assay) IC50 [3] [nM]
hHA-008 (antibody, human IgG1, kappa, L234A L235A) heavy: not shown light: DVVLTQSPLSLPVTLGQPASISCRSSQSLEESDGYTFLHWFQQRPGQSPRLLIYEVSTRFSGVPDRFSGSGSGTDFTLKISRVEAEDVGVYYCFQATHDPLTFGQGTKLEIKRTVAAPSVFIFPPSDEQLKSGTASVVCLLNNFYPREAKVQWKVDNALQSGNSQESVTEQDSKDSTYSLSSTLTLSKADYEKHKVYACEVTHQGLSSPVTKSFNRGEC | 0.377 | 0.37 | –
hHA-009 (antibody, human IgG1, kappa, L234A L235A, V domains shown) VH: EVQLVESGGGLVQPGGSLRLSCAASGFTFSNYGMNWVRQAPGKGLEWIGMIYYDSSEKHYADSVKGRFTISRDNSKNTLYLQMNSLRAEDTAVYYCAKGTTPDYWGQGTMVTVSS VL: DVVLTQSPLSLPVTLGQPASISCRSSQSLADSDGDTFLHWFQQRPGQSPRLLIYAVSHRFSGVPDRFSGSGSGTDFTLKISRVEAEDVGVYYCFQATHDPVTFGQGTKLEIKR | 1.36 | 1.36 | –
